Assay results published in US20230212635.

B1: serum purified Complement Factor I (Complement Technology, A138) (protein)
chain: KVTYTSQEDLVEKKCLAKKYTHLSCDKVFCQPWQRCIEGTCVCKLPYQCPKNGTAVCATNRRSFPTYCQQKSLECLHPGTKFLNNGTCTAEGKFSVSLKHGNTDSEGIVEVKLVDQDKTMFICKSSWSMREANVACLDLGFQQGADTQRRFKLSDLSINSTECLHVHCRGLETSLAECTFTKRRTMGYQDFADVVCYTQKADSPMDDFFQCVNGKYISQMKACDGINDCGDQSDELCCKACQGKGFHCKSGVCIPSQYQCNGEVDCITGEDEVGCAGFASVTQEETEILTADMDAERRRIKSLLPKLSCGVKNRMHIRRKRIVGGKRAQLGDLPWQVAIKDASGITCGGIYIGGCWILTAAHCLRASKTHRYQIWTTVVDWIHPDLKRIVIEYVDRIIFHENYNAGTYQNDIALIEMKKDGNKKDCELPRSIPACVPWSPYLFQPNDTCIVSGWGREKDNERVFSLQWGEVKLISNCSKFYGNRFYEKEMECAGTYDGSIDACKGDSGGPLVCMDANNVTYVWGVVSWGENCGKPEFPGVYTKVANYFDWISYHVGRPFISQYNV

Tests used:
C3b = C3b (UniProt P01024)

Chain of C3b, P01024 (P01024 whole entry, looked up): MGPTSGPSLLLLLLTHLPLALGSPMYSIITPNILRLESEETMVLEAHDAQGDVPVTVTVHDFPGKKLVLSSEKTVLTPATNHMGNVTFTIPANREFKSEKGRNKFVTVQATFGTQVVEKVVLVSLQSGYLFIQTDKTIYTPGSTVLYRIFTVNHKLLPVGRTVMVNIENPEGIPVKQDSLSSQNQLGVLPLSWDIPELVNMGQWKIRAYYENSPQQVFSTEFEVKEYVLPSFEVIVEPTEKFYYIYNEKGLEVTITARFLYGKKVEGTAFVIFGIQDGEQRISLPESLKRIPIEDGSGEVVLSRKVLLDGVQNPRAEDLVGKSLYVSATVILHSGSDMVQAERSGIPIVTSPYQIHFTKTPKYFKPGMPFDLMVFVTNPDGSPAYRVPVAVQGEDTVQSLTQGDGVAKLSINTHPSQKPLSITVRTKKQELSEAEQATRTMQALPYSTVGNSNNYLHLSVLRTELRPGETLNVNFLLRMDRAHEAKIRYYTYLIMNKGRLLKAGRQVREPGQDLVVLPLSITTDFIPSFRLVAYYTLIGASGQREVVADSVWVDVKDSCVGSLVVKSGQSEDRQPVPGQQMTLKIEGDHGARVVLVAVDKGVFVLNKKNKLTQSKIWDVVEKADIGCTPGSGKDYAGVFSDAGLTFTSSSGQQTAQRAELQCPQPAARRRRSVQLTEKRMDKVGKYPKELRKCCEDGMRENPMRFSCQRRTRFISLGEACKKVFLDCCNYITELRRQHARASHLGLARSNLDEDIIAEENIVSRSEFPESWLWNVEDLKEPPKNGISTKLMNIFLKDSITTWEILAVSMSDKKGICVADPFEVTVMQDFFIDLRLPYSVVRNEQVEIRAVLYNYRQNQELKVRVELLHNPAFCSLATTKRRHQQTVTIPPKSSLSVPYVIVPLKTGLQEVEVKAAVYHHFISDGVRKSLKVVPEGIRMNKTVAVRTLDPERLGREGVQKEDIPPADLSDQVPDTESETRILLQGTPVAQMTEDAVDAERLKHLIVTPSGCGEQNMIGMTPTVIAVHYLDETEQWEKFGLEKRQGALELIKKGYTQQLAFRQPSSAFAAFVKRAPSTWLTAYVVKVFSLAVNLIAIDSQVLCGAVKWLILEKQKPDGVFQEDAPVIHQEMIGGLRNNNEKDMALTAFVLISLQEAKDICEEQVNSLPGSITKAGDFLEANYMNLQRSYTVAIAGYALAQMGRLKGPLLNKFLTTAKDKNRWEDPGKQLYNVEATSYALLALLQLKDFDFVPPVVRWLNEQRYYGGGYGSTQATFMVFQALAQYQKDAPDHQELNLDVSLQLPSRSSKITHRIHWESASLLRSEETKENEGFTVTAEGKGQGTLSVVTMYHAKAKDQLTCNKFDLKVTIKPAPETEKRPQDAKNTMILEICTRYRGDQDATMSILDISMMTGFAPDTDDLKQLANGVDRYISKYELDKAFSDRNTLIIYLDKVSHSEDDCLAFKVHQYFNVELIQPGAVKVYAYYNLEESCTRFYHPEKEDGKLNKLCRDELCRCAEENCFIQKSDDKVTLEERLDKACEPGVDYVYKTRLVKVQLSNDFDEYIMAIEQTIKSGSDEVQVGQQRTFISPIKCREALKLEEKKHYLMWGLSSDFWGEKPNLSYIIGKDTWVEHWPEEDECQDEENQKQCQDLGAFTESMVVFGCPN

| Molecule | fluid phase cofactor activity (C3b cleavage with Factor H, SDS-PAGE, Coomassie) (C3b) | fluid phase cofactor activity (C3b cleavage with Factor H, SDS-PAGE, Coomassie) (C3b, P01024) |
| --- | --- | --- |
| recombinant mature Complement Factor I from the pDEF-CFI vector in CHO-K1 cells (first Mono S peak) | At 30 minutes the lowest concentration of fully processed factor I (6.25ng) (right) had cleaved C3b as evidenced by decrease in C3α -110 band and increase in C3α-68,-46, and -43 bands |  |
| recombinant mature Complement Factor I produced from the Furin-IRES-CFI vector (VB171219-1127wqz) in HEK293T cells | Enzymatic activity of IRES CFI and serum CFI was demonstrated to be equivilant. |  |
| recombinant precursor Complement Factor I (single chain with intact RRKR linker) | by 45 minutes 10ng of precursor CFI showed no demonstrable activity |  |
| B1 |  | Enzymatic activity of IRES CFI and serum CFI was demonstrated to be equivilant. |
